Assay results published in the supplement of paper PMC9170038.

Test system: MS2 coat protein
Assay: apparent KD of MS2 coat protein; designed switch direction (-1 OFF switch, 1 ON switch): 1; higher = weaker reporter binding
Procedure, shortened: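 The apparent KD reported per design is the median over clusters of curve fits to normalised cluster fluorescence. The RNA switches were transcribed on Illumina chips by stalled E. coli RNA polymerase. SNAP-549-labelled MS2 coat protein was titrated from 0.7 or 1.5 nM, doubling up to 3 µM, in Tris-HCl pH 7.5 buffer containing KCl, MgCl2, BSA, DTT, tRNA and Tween-20, with no input, 200 uM small-molecule ligand, or an oligonucleotide input.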

[1] = Eterna round: R95, input ligand: FMN 200 uM
[2] = Eterna round: R95, input ligand: microRNA oligo, concentration not stated
[3] = Eterna round: R95, input ligand: none
[4] = input ligand: microRNA oligo, concentration not stated

Row | Sequence | apparent KD of MS2 coat protein [1] | apparent KD of MS2 coat protein [2] | apparent KD of MS2 coat protein [3] | apparent KD of MS2 coat protein (input ligand: FMN 200 uM) | apparent KD of MS2 coat protein [4] | apparent KD of MS2 coat protein (input ligand: none)
1 | AAGUAGGAGUUACAGGAUAUAUGGAGGAGGACAUGAGGAUCACCCAUGUGAGAGAUGAGAGGAGGAUAGAAGGGUAAGGGAGUAA [JR_SS2_Sub027] (puzzle: Same State 2) | 24.1 nM | 20.9 nM | 32 nM |  |  | 
2 | GCGGAGAGGUAAGGAUAUCCAUGGCAUAGACAUGAGGAUCACCCAUGUAGGAGACGAAUUAGGAGGGAGAAGGUACCGGGACGC [AK SSNG2-V2-19.1] (Eterna round: R96, puzzle: Same State NG 2) |  |  |  | 120 nM | 81.2 nM | 179 nM
3 | ACAUGAGAGAUAGGAUAUGUUGUACCUACAUGUGACAUGAGGAUCACCCAUGUGGUAAGUAUGAGGCAGAAGGAUCAGAUAUGU [Equivalence 41 - Jieux - Same State NG 2] (Eterna round: R96, puzzle: Same State NG 2) |  |  |  | 29.2 nM | 68.1 nM | 88.1 nM
4 | AUGAAGAAUUAAGGAUAUUGAAUACAUAUGUUUAACAUGAGGAUCACCCAUGUGGGUUGCGGUAUCGAGAAGGUAAAAUAAUAG [Mat - same State NG 2 - JL mod - D91] (Eterna round: R96, puzzle: Same State NG 2) |  |  |  | 162 nM | 79.4 nM | 136 nM
5 | ACGCAGCUAGGUGAGGAUAUCGGUGGUAAAACAUGAGGAUCACCCAUGUCCGAAGCUCGGACUUCCGAGAAGGCGCCCGGCUGCA [Velaberi] (Eterna round: R96, puzzle: Same State 2) |  |  |  | 12.7 nM | 78.8 nM | 106 nM
6 | CGUCGUUUGAUAGGAUAUCGCUUUACAUGCGGAUCACCCAUGUUUACCACGCUGGUUUUUCUUUCCGAGAAGGAUUCUGAUGUU [salish99_SSNG02_r04_026] (Eterna round: R96, puzzle: Same State NG 2) |  |  |  | 42 nM | 10.1 nM | 134 nM
7 | AAAAAACAUGAGGAUCACCCAUGUAAAAAUAUGGGAGGAUAUUCAAACACGAAAGUGAAAGAAGAAGGCCUAAAAA [SS! MT 18] (Eterna round: R96, puzzle: Same State 1) |  |  |  | 17.5 nM | 56.7 nM | 81.3 nM
8 | UAAAUAAUGUAAGGAUAUACAUGAGGAAUUCUCGUAGAAGGUACAUGACAUGAGGAUCACCCAUGUAUCGCUCCGUAGAGCGUA [Mat - Same State NG 1 - JL mod - D26] (Eterna round: R96, puzzle: Same State NG 1) |  |  |  | 288 nM | 5.78 nM | 48.8 nM
9 | CGGCGUUGUCGAGAGGAUAUGCGGUGAUGGACAUGAGGAUCACCCAUGUUAGCGAUAGCAUUACGGUAGAAGGCUCUACAGCUGC [Soteed Omei mod 7] (puzzle: Same State 2) |  | 42.5 nM |  |  |  | 
10 | GGCCUCUGUCAAGGAUAUGCUACCGUUUCGGUAGCAGAAGGUGAUCACAUGCGGUUCGCCCAUGUUUAGGCCAACAGGCCCGCC (Eterna round: R96, puzzle: Same State NG 1) |  |  |  | 25.1 nM | 5.14 nM | 6.87 nM
11 | AUAAGUUCGAUGCUCGUCUCUCCGUACAAACAUGAGGAUCACCCAUGUGGUCGGGAAGUAGCCCGGCCAGUAUGACC [Arbesoce] (puzzle: Sensor for hsa-mir-208a) | 31.2 nM | 22 nM | 29 nM |  |  | 
12 | GGCCUGCCGCAAGGAUAUGAAGCUUUCGCUCCGUCAGAAGGUGCACAUGAGGAUCACCCAUGUAUGCAGGCCAAGAAAUAAACC [Tisoenat] (Eterna round: R96, puzzle: Same State NG 1) |  |  |  | 13.2 nM | 25.9 nM | 37.1 nM
13 | UUUAGUUGCGGGCAGGAUAUGUGUUAAAAUACAUGAGGAUCACCCAUGUGCGGGUAUAACACCCGACAGAAGGGCCAAUCGCGAC [Laonerce - 2] (puzzle: Same State 2) | 21.8 nM | 56.4 nM | 67.9 nM |  |  | 
14 | AUAAAACAUGAGGAUCACCCAUGUCAAUAAAGUCGAGGAUAUGGGCAAAUAAAAUAAGAACCAGAAGGCGAAUAAU [salish99_ss1_r3_042] (puzzle: Same State 1) | 33.2 nM | 217 nM | 206 nM |  |  | 
15 | GUCCGGCUGCCACAGGAUAUACGUGGAUCGACAUGAGGAUCACCCAUGUAUAUCCUAAUAAUUGCGUAGAAGGGUGGUCAGCCGG [Dionbe] (Eterna round: R96, puzzle: Same State 2) |  |  |  |  | 507 nM | 
16 | GGUCCAUCAUGAGGAUAUGGCACCUUAUUGGUGCCAGAAGGCAUGUAAAUUAUAAUAAACAUGAGGAUCACCCAUGUAUGGACC [Eli NG1ss - 96] (Eterna round: R96, puzzle: Same State NG 1) |  |  |  | 439 nM | 55.5 nM | 137 nM

Row | Sequence | apparent KD of MS2 coat protein [1] | apparent KD of MS2 coat protein [2] | apparent KD of MS2 coat protein [3] | apparent KD of MS2 coat protein (input ligand: FMN 200 uM) | apparent KD of MS2 coat protein [4] | apparent KD of MS2 coat protein (input ligand: none)
17 | GCUAGGAAUAAAGCCAACAUGAGGAUCACCCAUGUAUGUUGGUAGGAUAUCGUUUGCAAAGCAAACGAGAAGGGCUAACCUAGC [Mat - Same State NG 3 - JL Mod - D68] (Eterna round: R96, puzzle: Same State NG 3) |  |  |  | 85.8 nM | 62.7 nM | 71.1 nM
18 | AUUAAACAUGAGGAUCACCCAUGUCAACAAAGUCGAGGAUAUGGGCAUAUUAUAUAAUAACCAGAAGGCGAAUAAU [salish99_ss1_r3_084] (puzzle: Same State 1) | 11.1 nM | 12.8 nM | 13.8 nM |  |  | 
19 | AGUCCAGCCUGAGCUGGACAAAAGUAUGUACAUGAGGAUCACCCAUGUCAUGUACAAGCUUUUUGCUCGUCUUAAAA [Zipper 46 - 14] (puzzle: Sensor for hsa-mir-208a) | 287 nM | 23.6 nM | 377 nM |  |  | 
20 | GGCCUGAGUGAAGGAUAUGCUACCGUUUCGGUAGCAGAAGGUCAUCACAUGAGGAUGACCCAUGUUUACGCGAACACGCGCGCC (Eterna round: R96, puzzle: Same State NG 1) |  |  |  | 45.9 nM | 27.2 nM | 28.2 nM
21 | GCGGAGACGUCAGGAUAUCCAUGGAAGACACAUGAGGAUCACCCAUGUGGGAGGGAAACCAGGAGGGAGAAGGGACGGAAACGC [ssng2 v2 d] (Eterna round: R96, puzzle: Same State NG 2) |  |  |  | 10 nM | 9.63 nM | 14.1 nM
22 | UGUUGUAUUACAGGAUAUCUAUUGUUUUUACUUAGAGAAGGGUAUUCACAUGAGGAUCACCCAUGUAUAUACGAGGAAGUUGUG [JMF's solution 83] (Eterna round: R96, puzzle: Same State NG 1) |  |  |  | 39.2 nM | 31 nM | 41.8 nM
23 | AGCUAUCGAAAACGAUAGCAAAAGCAUGUACAUGAGGAUCACCCAUGUCAUGUACAAGCUUUUUGCUCGUCUUAAAA [JL zipper 23] (Eterna round: R96, puzzle: Sensor for hsa-mir-208a) |  |  |  | 919 nM | 14.3 nM | 1000 nM
24 | CGUCCGGCCUGUGCUGGACGGAAGCAUGUACAUGAGGAUCACCCAUGUUCAUGUGCAGGCUUUUUGCUCGUCUUGUG [salish99_mir208a_modof_jandersonlee_005] (puzzle: Sensor for hsa-mir-208a) | 102 nM | 13.4 nM | 117 nM |  |  | 
25 | ACAUGAGACUCAGGAUAUCAUGUACCUACAUGUGACAUGAGGAUCACCCAUGUGGUAAGUAUGACUGAGAAGGGAGAGAUAUGU [Equivalance 88 - Jieux - Same State NG 2] (Eterna round: R96, puzzle: Same State NG 2) |  |  |  | 63.7 nM | 159 nM | 248 nM
26 | AGUCCAGCGAAAGCUGGACAAAAGCAUGUACAUGAGGAUCACCCAUGUUCAUGUACAGGCUUUUUGCUCGUCUUAAA [JL mod - D95 - 8] (puzzle: Sensor for hsa-mir-208a) | 243 nM | 12.6 nM | 175 nM |  |  | 
27 | CGUGGGUGGCUGGAGGAUAUUCGAGUGGUAACAUGAGGAUCACCCAUGUGUCGCGCGGUACACGAGGAGAAGGCUGGCGGCCGGC (puzzle: Same State 2) | 34.6 nM | 109 nM | 256 nM |  |  | 
28 | AAAAUAAAAUAAAAGGAUAUAAAAUAAAAUACAUGAGGAUCACCCAUGUAUAAAAUAAAAAAAUAAAAGAAGGAAUAAAAAUAAA [SS2 504: MS2 4] (Eterna round: R96, puzzle: Same State 2) |  |  |  | 28.3 nM | 22.9 nM | 26.7 nM
29 | GGAGCCGGCACCGAGGAUAUUCAUAUUAAAACAUGAGGAUCACCCAUGUAGAGCGAAAGCUCUUGGGAGAAGGCGGAUCGGCUCG [Xeonanis - 28] (Eterna round: R96, puzzle: Same State 2) |  |  |  | 34.6 nM | 488 nM | 665 nM
30 | AGAGAACAUGAGGAUCACCCAUGUAGGAUGGGCAUAGGAUAUAGAGGAAUGAGGGAGGAGCUAGAAGGAUGAUGGA [JR_SS1_Sub078] (puzzle: Same State 1) | 110 nM | 192 nM | 145 nM |  |  | 
31 | CGUCCGGCCUGAGCUGGACGGAGGCAUGUACAUGAGGAUCACCCAUGUUCAUGUGCAGGCUUUUUGCUCGUCUUGUG [JL-shm-2.07 JL mod] (puzzle: Sensor for hsa-mir-208a) | 53 nM | 10.9 nM | 54.2 nM |  |  | 
